One assay concerns cortical neurons. As to the kind of experiment: MNNG-induced cell death in cortical neurons. It is filed as cell-based, mouse. Particulars: MNNG 50 μM for 15 min. On the procedure:
Primary Neuronal Culture Preparation: Primary cortical cell cultures were prepared from gestational day 15 mouse embryos as previously described. Experiments were performed at DIV (day in vitro) 14. Under these conditions, neurons represent 90% of the cells in the culture. Mature neurons were washed with control salt solution (CSS) containing 120 mM NaCl, 5.4 mM KCl, 1.8 mM CaCl2, 25 mM Tris-HCl pH 7.4 and 15 mM D-glucose. To induce NMDA-mediated […], 50 μM NMDA and 10 μM glycine in CSS solution was applied to the cells for 5 min, then the cells were washed and re-supplemented with minimum essential medium containing 10% horse serum. […]
Cell Death Assessment: Following exposure of neuronal cultures to the various treatments neuronal survival was quantified and presented as percent of cell death. Percent cell death was determined as the ratio of live-to-dead cells compared with the percent cell death in control wells to account for cell death attributable to mechanical stimulation of the cultures. Quantification of neuronal survival was determined by staining treated cultures with 5 μM Hoechst 33342 and 2 μM propidium iodide (PI) (Invitrogen, Carlsbad, Calif.). […] The numbers of total and dead (PI positive) cells were counted by automated computer assisted software (Axiovision 4.6, Zeiss, Germany). […]

Assay [1] deals with MCF7 cells. Nature of the assay: Cell cycle analysis after γ-irradiation. It counts as cell-based, human. Particulars: γ-irradiation 2 Gy. The method, then:
Cell cycle analysis. Studies were performed to evaluate the cell cycle response of each stable cell lines. Cells were plated onto 150 mm culture dishes and cultured for 24 h at 37° C. with fresh growth medium. Following replacement of growth medium, cells were irradiated at 2 Gy with a Gammacell irradiator. After 12 h, cells were washed once with PBS and incubated with PBS containing 0.2% EDTA for 5 min at 37° C., thereafter scraped with fresh growth medium and collected at 500×g at 4° C. Collected cells were washed once with ice cold PBS and then fixed with 70% ethanol. Cells were washed once with PBS containing 1% FBS and resuspended into propidium iodide (PI) staining buffer (PBS, pH 7.4, 50 μg/ml PI, 1% FBS, 100 μg/ml RNase) for 30 min at 37° C. Cells were monitored for DNA content by a flow cytometry (BD Biosciences) and then data were analyzed with FlowJo using Dean-Jett-Fox model for the quantification of each cell cycle phase.

Assay [2] in a line: Intrastriatal NMDA lesion in Iduna transgenic mice. To be noted: Iduna transgenic mice vs littermate wild type, intrastriatal NMDA 20 nmoles. It is filed as in vivo, mouse. The source says:
To determine whether Iduna is protective in vivo, transgenic mice overexpressing Iduna were generated by knocking in Iduna into the ROSA26 genomic locus resulting in a four-fold expression over wild type littermate mice (FIGS. 58-60). NMDA induced lesions are reduced by approximately 80% in the Iduna transgenic mice compared to littermate wild type control animals following an intrastriatal injection of NMDA (20 nmoles) (FIGS. 61 and 62).
Transgenic Mice: ES cells were targeted and screened as described in Soriano et al. Briefly, the pROSA26PA-iduna plasmid was linearized with KpnI and electroporated into ES cells derived from mouse strain 129SvEv. Twelve of 277 G418-resistant colonies had undergone correct homologous recombination, as determined by Southern blot and PCR of the ROSA26-Iduna allele. Two of these ROSA26-Iduna ES clones were injected into C57BL/6 blastocysts. Resulting chimeras were bred to C57BL/6 mice and offspring were tested for germline transmission. Heterozygous mice for the Rosa26PA-Iduna allele were crossed to Nestin-Cre^(+/+) mice (on C57BL/6 background), which were obtained from the Jackson Laboratory, to obtain ROSA26PA-Iduna^(+/loxP)/Nestin-Cre^(−/+) mice. Nestin-cre/ROSA26PA-Iduna transgenic mice, in which Cre recombinase expression is under the control of the nestin promoter, specifically expresses Iduna in brain. […]

Assay [3] concerns MCF7 cells. As to the kind of experiment: MNNG cell death assay in stable MCF7 cell lines. It counts as cell-based, human. To be noted: MNNG 500 μM 15 min, 24 hr. The method, then: Cell death assay. GFP, GFP-Iduna, GFP-Iduna C60A, GFP-Iduna YRAA, shRNA-Iduna and shRNA-Iduna/GFP-Iduna stably transfected cells were treated with 500 μM MNNG for 15 min, and replaced with fresh growth media. After 24 h, the cells were stained with […] Hoechst 33342 (Invitrogen) and […] propidium iodide (PI) (Invitrogen) and counted by automated computer-assisted program (Carl Zeiss). The percentage of cell death was determined as the ratio of live to dead cells compared with the percentage of cell death in control.

B1: Iduna: novel NMDA-induced cell survival protein, PAR-dependent E3 ligase; 359 amino acids (protein)
chain: MEMAGCGEIDHSINMLPTNKKANESCSNTAPSLTVPECAICLQTCVHPVSLPCKHVFCYLCVKGASWLGKRCALCRQEIPEDFLDKPTLLSPEELKAASRGNGEYAWYYEGRNGWWQYDERTSRELEDAFSKGKKNTEMLIAGFLYVADLENMVQYRRNEHGRRRKIKRDIIDIPKKGVAGLRLDCDTNTVNLARESSADGADSGSAQTGASVQLAVPSSTRPLTSVDGQLTSPVTPSPDAGISLEDSFAHLQLSGDSIAERSHRGEGEEDHESPSSGRVPDTSVEETESDASSDSEDAPVVVAQHSLTQQRPLVPNGNQTVADQSDRSGTDRSVAGGGTMSVNVRSRRPDGQCTVIEV
As to B1, the “protection against MNNG-induced cell death” value in the assay with cortical neurons is reported as “protects neuronal cultures against MNNG-induced cell death”. Further, the “cell cycle arrest and cell survival” value in the assay with MCF7 cells [1] is “rescues cells from G1 arrest in the cell cycle and promotes cell survival”. Moreover, in assay [2], the “reduction of NMDA induced lesions” value is “approximately 80%”. In the assay with MCF7 cells [3], the MNNG-induced cell death result is reported as “dramatically rescues MCF7 cells from MNNG-induced cell death”.

Values taken from patent publication US9623039B2, “Treatment and prevention of pathological conditions using iduna related techniques and compositions” (VALTED, LLC, priority 2010, dated 2017).
